The supplement of paper PMC10567573

B1: CDC25B (parent)
chain: FVDILESDLKDDDAVPPGMESLIS

Variants of: B1
Assay: protein stability index of a GFP-peptide fusion (GPS, HEK-293T) (PSI 1-6); higher = more stable
Conditions: c terminus: a fixed tail appended
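Also: lentivirally expressed fusions sorted by FACS into six bins by GFP to DsRed ratio, PSI derived from sequencing read proportions per bin multiplied by bin number.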

Protein stability index: each site, then its substitutions
G18: E 3.39, N 3.23, C 2.6, V 2.87, A 3.03, S 3.06, Q 2.86, L 3.51, P 3.18, H 3.11, I 2.32, R 2.87, Y 2.65, T 3.28, F 2.26, K 2.8, W 2.31, M 2.6, D 3.29
E20: A 2.77, C 2.43, P 2.44, I 2.31, D 2.6, S 2.43, K 2.74, N 2.76, R 2.71, Q 3.08, L 2.2, G 2.48, M 2.16, H 2.69, F 1.79
D13: I 2.08, T 2.75, N 2.67, Q 2.71, H 2.7, W 2.62, V 2.39, G 2.61, A 3.04, M 2.33, C 2.56, K 2.96, P 2.83, E 2.95, S 2.63, L 2.61, R 2.1, Y 2.11, F 2.38
P16: G 3.02, A 2.98, W 2.52, H 3.14, T 2.98, V 3.07, S 2.88, Y 2.82, E 3.04, K 3, D 3.62, C 2.68, Q 2.79, R 2.59, M 2.6, L 2.76, I 2.44, F 2.06, N 3.23
L5: Q 3.67, F 2.35, A 3.84, N 3.81, E 4.46, H 3.7, V 3.03, T 3.51, S 4.58, C 3.02, R 2.94, I 2.46, G 3.73, Y 2.8, D 4.61, M 3.57, P 3.75, K 3.63, W 1.85
V15: F 2.39, I 3, L 2.78, C 2.88, D 3.11, T 2.92, Y 3.1, A 2.78, M 3.02, Q 2.87, R 2.69, S 3.32, N 3.27, W 2.69, H 3.04, G 3.19, K 2.96, E 3.11
D12: H 2.88, G 3.01, M 2.08, K 2.78, E 2.93, T 2.65, C 2.5, F 2.19, S 2.96, L 2.9, V 2.56, R 2.16, N 2.67, A 2.84, Y 2.69, P 2.66, Q 2.62, I 2.21, W 1.83
P17: A 2.95, Y 2.71, S 2.72, T 3.51, C 2.58, I 2.45, E 3.6, K 2.45, F 2.21, V 2.27, H 2.61, R 2.19, N 2.66, Q 3.2, D 3.2, G 3.25, M 2.69, W 1.81, L 2.43
K10: W 2.43, G 3.5, Y 2.59, N 2.87, L 2.45, R 2.75, P 3.1, V 3, S 2.52, C 3.11, I 2.72, H 2.97, Q 2.97, M 3.2, D 2.91, A 2.77, F 2.63, T 3.46, E 3.33
M19: L 3.08, D 3.48, E 3.37, C 2.91, R 2.55, N 3.4, T 3.09, P 3.54, Y 2.32, F 2.83, K 3.02, G 3.06, A 3.22, I 2.85, V 3.08, Q 3.6, W 2.67, H 2.89, S 3.45
L9: A 3.09, F 2.85, Q 3.18, N 3.67, C 3.05, E 3.39, K 3.4, I 3.05, G 3.05, V 2.93, P 3.62, R 3.08, T 3.23, H 3.33, W 2.97, S 3.36, Y 3.18, D 3.21, M 3.03
A14: I 2.65, K 2.96, M 3, T 3.61, Q 2.33, R 2.75, P 3.15, V 3.15, C 2.86, N 3.29, W 2.65, H 2.75, E 3.05, D 3.48, S 3.24, L 2.8, G 2.53, Y 2.49, F 2.49
I4: C 3.91, D 4.54, T 3.37, V 3.13, N 4.34, M 2.47, Q 3.75, F 2.8, K 2, W 2.29, S 4.05, P 4.03, E 4.52, R 3.11, Y 2.52, H 3, A 4.18, G 3.46, L 2.75
D3: Y 2.15, H 2.91, F 1.6, M 1.92, V 1.86, N 2.81, R 2.12, G 2.83, L 1.93, S 2.96, I 2.75, P 2.93, T 2.39, K 2.65, Q 3.04, W 1.91
E6: I 1.93, W 2.32, G 2.31, L 2.45, M 2.38, P 2.37, R 2.2, A 2.04, C 2.13, Q 2.89, T 2.58, F 2.68, V 2.19, Y 2.33, S 2.54, K 2.84, D 2.88, H 2.55, N 3.13
D8: A 2.58, M 2.55, I 2.56, F 2.32, G 2.93, Y 2.62, Q 2.67, S 2.38, N 3.18, V 2.7, K 2.48, L 2.9, H 2.79, T 2.66, P 2.31, W 2.54, C 2.15, E 2.89, R 2.7
S7: N 2.57, H 2.6, Y 2.77, I 2.3, R 2.47, Q 3.19, L 2.21, V 2.17, G 3.22, E 3.79, T 2.85, K 2.6, W 1.36, F 1.9, M 2.6, D 3.67, P 2.83, A 2.79, C 3.23
D11: F 2.52, H 2.37, M 2.6, Y 2.71, T 3.28, K 3.02, C 2.25, E 3.17, R 2.25, G 2.78, V 2.61, S 2.94, N 2.5, P 2.68, I 2.6, L 2.25, Q 2.51, W 1.8, A 3
